In IntAct's records for PubMed 16272220:

Columns and labels:
trx1_yeast TRX1 = biological target: T1, trx1_yeast TRX1 (UniProt P22217)
T1 sequence: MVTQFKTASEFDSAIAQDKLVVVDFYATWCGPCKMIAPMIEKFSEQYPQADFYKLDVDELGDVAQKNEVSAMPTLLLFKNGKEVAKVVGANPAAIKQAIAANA

trx2_yeast TRX2 = biological target: T2, trx2_yeast TRX2 (UniProt P22803)
T2 sequence: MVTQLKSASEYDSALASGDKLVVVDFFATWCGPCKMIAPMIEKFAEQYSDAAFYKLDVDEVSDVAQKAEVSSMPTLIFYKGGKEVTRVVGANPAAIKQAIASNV

effect of a mutation on the interaction (trx1_yeast TRX1): decreasing interaction | effect of a mutation on the interaction (trx2_yeast TRX2): decreasing interaction
Substance: Phosphoadenosine phosphosulfate reductase (Saccharomyces cerevisiae) (from UniProt P18408) C245S
